Publication PMC11039470, “Catalytic specificity and crystal structure of cystathionine γ-lyase from Pseudomonas aeruginosa” (Scientific Reports, 2024)

Experiments:
[1] = biological target: T1, cystathionine γ-lyase (PaCGL) (Pseudomonas aeruginosa, UniProt Q9I6A0); test: intrinsic fluorescence titration of apo-PaCGL; […] Å crystal structure; type: binding
T1 construct: gene PA0400; 394-residue PaCGL (PAO1_PA0400), 6x-His tagged; homotetramer

[2] = biological target: PaCGL F114A variant, N-terminal 6x-His tag (Pseudomonas aeruginosa); test: SEC; gel filtration on Sephacryl S-200 16/60 HR in 20 mM sodium phosphate pH 8.0, 150 mM NaCl, 0.1 mM DTT; calibration curve; self-association (tetramer)
[3] = biological target: PaCGL F114N variant ("humanized"), N-terminal 6x-His tag (Pseudomonas aeruginosa); test: as above
N[C@@H](CS)C(=O)O = test: purified protein; type: biochemical, Pseudomonas aeruginosa; conditions: PLP PLP-containing active site
[4] = test system: N[C@@H](CCSC[C@H](N)C(=O)O)C(=O)O; test: DTNB assay steady-state kinetics (Km); type: biochemical, Pseudomonas aeruginosa; conditions: PLP PLP-containing active site
[5] = biological target: cystathionine γ-lyase from Pseudomonas aeruginosa (PaCGL), wild type, N-terminal 6x-His tag (Pseudomonas aeruginosa); test: SEC; gel filtration on Sephacryl S-200 16/60 HR in 20 mM sodium phosphate pH 8.0, 150 mM NaCl, 0.1 mM DTT; calibration curve; self-association (tetramer)
purified protein = substrate: N[C@@H](CS)C(=O)O; test: purified protein; type: biochemical, Pseudomonas aeruginosa; conditions: PLP amino acid site […] of the active site (second L-Cys at site […])
[6] = substrate: N[C@@H](CCSC[C@H](N)C(=O)O)C(=O)O; test: DTNB assay steady-state kinetics (Km); UV-Vis and CD spectra; LC-MS/MS; type: biochemical, Pseudomonas aeruginosa; conditions: PLP PLP-containing active site (chamber-1)
[7] = substrate: N[C@@H](CCS)C(=O)O; test: lead acetate H2S assay kinetics (Km); LC-MS/MS; type: biochemical, Pseudomonas aeruginosa; conditions: PLP PLP-containing active site

`Cc1ncc(COP(=O)(O)O)c(C=O)c1O` [PLP] gave a Kd [1] of 150 ± 10 nM.

Work on “PaCGL F114A variant, N-terminal 6x-His tag (enzyme)” yielded a stoichiometry N [2] of 4.

“PaCGL F114N variant ("humanized"), N-terminal 6x-His tag (enzyme)” gave a stoichiometry N [3] of 4.

In the case of “cystathionine γ-lyase (PaCGL) (Pseudomonas aeruginosa PAO1; F114A)”, the Km (N[C@@H](CS)C(=O)O) is reported as 490 ± 10 µM, the kcat (N[C@@H](CS)C(=O)O) is reported as 0.13 ± 0.01 s⁻¹ and the kcat/Km (N[C@@H](CS)C(=O)O) is reported as 270 ± 30 M⁻¹ s⁻¹. For the same molecule, the Km [4] was 600 ± 100 µM, the kcat [4] was 3.2 ± 0.2 s⁻¹ and the kcat/Km [4] was 5300 ± 1200 M⁻¹ s⁻¹.

Molecule “cystathionine γ-lyase (PaCGL) (Pseudomonas aeruginosa PAO1; F114N)” has a Km (N[C@@H](CS)C(=O)O) of 1600 ± 300 µM, a kcat (N[C@@H](CS)C(=O)O) of 0.38 ± 0.06 s⁻¹ and a kcat/Km (N[C@@H](CS)C(=O)O) of 240 ± 80 M⁻¹ s⁻¹. It also gave a Km [4] of 500 ± 100 µM, a kcat [4] of 3.2 ± 0.1 s⁻¹ and a kcat/Km [4] of 6400 ± 1500 M⁻¹ s⁻¹.

Molecule “cystathionine γ-lyase from Pseudomonas aeruginosa (PaCGL), wild type, N-terminal 6x-His tag (enzyme)” has a stoichiometry N [5] of 4.

B1: cystathionine γ-lyase (PaCGL) (Pseudomonas aeruginosa PAO1) (protein)
chain: MSQHDQHPDAPAQAFATRVIHAGQAPDPSTGAIMPPIYANSTYIQESPGVHKGLDYGRSHNPTRWALERCVADLEGGTQAFAFASGLAAISSVLELLDAGSHIVSGNDLYGGTFRLFERVRRRSAGHRFSFVDPTDLQAFEAALTPETRMVWVETPSNPLLRLTDLRAIAQLCRARGIISVADNTFASPYIQRPLELGFDVVVHSTTKYLNGHSDVIGGIAIVGDNPDLRERLGFLQNSVGAISGPFDAFLTLRGVKTLALRMERHCSNALALAQWLERQPQVARVYYPGLASHPQHELAKRQMRGFGGMISLDLRCDLAGARRFLENVRIFSLAESLGGVESLIEHPAIMTHASIPAETRADLGIGDSLIRLSVGVEALEDLQADLAQALAKI
notes: PaCGL with N-terminal 6x-His tag
Molecule B1 has a Km (purified protein) of 430 ± 30 µM, a Km [6] of 300 ± 40 µM and a kcat [6] of 5.2 ± 0.2 s⁻¹. For the same molecule, the kcat/Km [6] was 17000 ± 3000 M⁻¹ s⁻¹, the Km [7] was 1700 ± 300 µM and the kcat [7] was 0.42 ± 0.04 s⁻¹. It also gave a kcat/Km [7] of 250 ± 70 M⁻¹ s⁻¹.
